Assay results published in patent publication US20250084176A1 (F STAR BETA, published 2025).
Positions count from the first letter of the chain named.

B1: FS22-172-004, yeast-displayed clone (designed binder)
chain: GQPREPQVYTLPPSRDELNYIYPPYNQVSLTCLVKGFYPSDIAVEWESNGQPENNYKTTPPVLDSDGSFFLYSKLTVGADRWLEGNVFSCSVMHEALHNHYTQKSLSLSPG
B2: FS22-172-001, yeast-displayed clone (designed binder)
chain: B1 chain with N19P, Y20F, I21V, Y22M
B3: FS22-172-005, yeast-displayed clone (designed binder)
chain: B1 chain with N19Q, Y20Q, I21V
B4: FS22-053-011, yeast-displayed clone (designed binder)
chain: B1 chain with Y20P, I21P, P23L, P24F, Y25S, G78D, A79Y, D80W, L83T, E84D
B5: FS22-053-010, yeast-displayed clone (designed binder)
chain: B1 chain with Y20P, I21P, P23L, P24F, Y25S, G78D, A79Y, D80M, E84D
B6: FS22-172-002, yeast-displayed clone (designed binder)
chain: B1 chain with N19P, Y20F, I21Q, Y22M
B7: FS22-172-003, yeast-displayed clone (designed binder)
chain: B1 chain with N19P, Y22I
B8: FS22-053-009, yeast-displayed clone (designed binder)
chain: B1 chain with Y20P, I21P, P23L, P24F, Y25S, G78E, A79H, D80T, E84D
B9: FS22-172-006, yeast-displayed clone (designed binder)
chain: B1 chain with N19R, Y20K, I21Y, V28L
B10: FS22-053-012, yeast-displayed clone (designed binder)
chain: B1 chain with Y20P, I21P, P23L, P24F, Y25S, G78D, A79H, D80M
B11: FS22-053-008, yeast-displayed clone (designed binder)
chain: B1 chain with Y20P, I21P, P23L, P24F, Y25S, G78D, A79Y, D80W
B12: FS22-053-008/HelD1.3 (bispecific antibody, human IgG1, kappa)
heavy: QVQLQESGPGLVRPSQTLSLTCTVSGSTFSGYGVNWVRQPPGRGLEWIGMIWGDGNTDYNSALKSRVTMLVDTSKNQFSLRLSSVTAADTAVYYCARERDYRLDYWGQGSLVTVSSASTKGPSVFPLAPSSKSTSGGTAALGCLVKDYFPEPVTVSWNSGALTSGVHTFPAVLQSSGLYSLSSVVTVPSSSLGTQTYICNVNHKPSNTKVDKKVEPKSCDKTHTCPPCPAPELLGGPSVFLFPPKPKDTLMISRTPEVTCVVVDVSHEDPEVKFNWYVDGVEVHNAKTKPREEQYNSTYRVVSVLTVLHQDWLNGKEYKCKVSNKALPAPIEKTISKAKGQPREPQVYTLPPSRDELNPPYLFSNQVSLTCLVKGFYPSDIAVEWESNGQPENNYKTTPPVLDSDGSFFLYSKLTVDYWRWLEGNVFSCSVMHEALHNHYTQKSLSLSPG
light: DIQMTQSPASLSASVGETVTITCRASGNIHNYLAWYQQKQGKSPQLLVYNAKTLADGVPSRFSGSGSGTQYSLKINSLQPEDFGSYYCQHFWSTPRTFGGGTKLEIKRTVAAPSVFIFPPSDEQLKSGTASVVCLLNNFYPREAKVQWKVDNALQSGNSQESVTEQDSKDSTYSLSSTLTLSKADYEKHKVYACEVTHQGLSSPVTKSFNRGEC
notes: Mock mAb^2, IgG1 without LALA; also called FS22-053-008/HeID1.3
B13: FS22-053-011/HelD1.3 (bispecific antibody, human IgG1, kappa)
heavy: B12 heavy with L422T, E423D
light: B12 light
notes: Mock mAb^2, IgG1 without LALA; also called FS22-053-011/HeID1.3
B14: FS22-172-002/HelD1.3 (bispecific antibody, human IgG1, kappa)
heavy: B12 heavy with N358P, P359F, P360Q, Y361M, L362P, F363P, S364Y, D417G, Y418A, W419D
light: B12 light
B15: FS22-172-006/HelD1.3 (bispecific antibody, human IgG1, kappa)
heavy: B12 heavy with N358R, P359K, P360Y, L362P, F363P, S364Y, V367L, D417G, Y418A, W419D
light: B12 light
B16: FS22-053-010/HelD1.3 (bispecific antibody, human IgG1, kappa)
heavy: B12 heavy with W419M, E423D
light: B12 light
notes: Mock mAb^2, IgG1 without LALA; also called FS22-053-010/HeID1.3
B17: FS22-053-009/HelD1.3 (bispecific antibody, human IgG1, kappa)
heavy: B12 heavy with D417E, Y418H, W419T, E423D
light: B12 light
notes: Mock mAb^2, IgG1 without LALA; also called FS22-053-009/HeID1.3
B18: FS22-053-012/HelD1.3 (bispecific antibody, human IgG1, kappa)
heavy: B12 heavy with Y418H, W419M
light: B12 light
notes: Mock mAb^2, IgG1 without LALA; also called FS22-053-012/HeID1.3

Molecular target: T1, hCD137-mFc-Avi (human; mouse, UniProt Q07011 24-186, one biotin on the Avi sequence of each monomer (BirA); unbiotinylated in the SPR of Example 5.6)
T1 construct: Made in-house in HEK293-6E; also called human CD137-mFc-Avi; dimeric human CD137; not shown: mouse IgG2a Fc domain (mIgG2a Fc)
Assay: flow cytometry of the yeast-displayed clone, 10 nM dimeric human antigen

T1 sequence (Q07011 24-186): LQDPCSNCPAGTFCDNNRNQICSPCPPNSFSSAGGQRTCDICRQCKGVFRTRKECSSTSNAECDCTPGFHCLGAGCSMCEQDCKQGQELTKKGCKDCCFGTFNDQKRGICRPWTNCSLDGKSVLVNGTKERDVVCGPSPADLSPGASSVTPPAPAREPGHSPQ

Row | Binder | % APC positive cells [%]
1 | B1 | > 10
2 | B2 | > 10
3 | B3 | > 10
4 | B4 | > 30
5 | B5 | > 30
6 | B6 | > 10
7 | B7 | > 10
8 | B8 | > 30
9 | B9 | > 10
10 | B10 | > 30
11 | B11 | > 30

Molecular target: T2, cCD137-mFc-Avi (cynomolgus; mouse, one biotin on the Avi sequence of each monomer (BirA); unbiotinylated in the SPR of Example 5.6)
T2 construct: also called cyno CD137-mFc-Avi; dimeric cynomolgus CD137; not shown: mouse IgG2a Fc domain (mIgG2a Fc)
T2 chain: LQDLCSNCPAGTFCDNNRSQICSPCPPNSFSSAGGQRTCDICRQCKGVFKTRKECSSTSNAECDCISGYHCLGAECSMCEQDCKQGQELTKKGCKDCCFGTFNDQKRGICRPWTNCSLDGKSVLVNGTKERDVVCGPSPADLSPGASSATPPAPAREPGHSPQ
Assay: SPR (Biacore), mAb2 captured by anti-human Fab, antigen in solution, 1:1 Langmuir
Protocol: (§1) An anti-human Fab capture antibody was immobilised on all four flow cells of a CM5 series S chip (GE Healthcare #BR-1005-30) to an average surface density of 6000 RU following the manufacturer's recommendations (GE Healthcare, human Fab capture Kit, #28958325). IEach mAb² was captured to approximately 150 RU by injecting a 3 μg/ml solution of mAb² diluted in HBS-EP+ buffer (GE Healthcare #BR1006-69) for 60 seconds at 30 μl/min. Then different concentrations of human, cyno or mouse CD137 antigen (unbiotinylated human, cyno or mouse CD137-mFc-Avi or human CD137-Avi-His) in HBS-EP+ buffer were flowed over the chip for 3 min at 60 μl/min and then allowed to dissociate for 10 minutes. After each antigen concentration the chip was regenerated by infecting 10 mM glycine pH 2.1 at a flow rate of 30 μl/min for 30 seconds. Buffer HBS-EP+ was injected before the highest concentration of antigen and after the lowest concentration of antigen for reference subtraction, and one of the concentrations at random was repeated twice. The binding kinetics were fit with a 1:1 Langmuir model to generate equilibrium binding constants (KD) for each sample. Data analysis was performed with BiaEvaluation software version 3.2.

Row | Binder | Kd [nM]
12 | B12 | 0.9
13 | B13 | 1.3

Molecular target: T3, hCD137-Avi-His (human, UniProt Q07011 24-186, single biotin on the Avi sequence (BirA); unbiotinylated in the SPR of Example 5.6)
T3 construct: also called human CD137-Avi-His; monomeric human CD137
Assay: as above
Protocol: as §1

T3 sequence (Q07011 24-186): as the sequence (Q07011 24-186) above

Row | Binder | Human monomeric CD137 KD fold difference relative to human dimeric KD [fold]
14 | B12 | 170
15 | B13 | > 200

Molecular target: T1, hCD137-mFc-Avi
Assay: as above
Protocol: as §1

Row | Binder | Kd [nM]
16 | B12 | 4.2
17 | B13 | 5.5

Molecular target: human CD137, full length, on cells (human, UniProt Q07011 24-255)
Assay: cell-based or functional assay

human CD137, full length, on cells, sequence (Q07011 24-255): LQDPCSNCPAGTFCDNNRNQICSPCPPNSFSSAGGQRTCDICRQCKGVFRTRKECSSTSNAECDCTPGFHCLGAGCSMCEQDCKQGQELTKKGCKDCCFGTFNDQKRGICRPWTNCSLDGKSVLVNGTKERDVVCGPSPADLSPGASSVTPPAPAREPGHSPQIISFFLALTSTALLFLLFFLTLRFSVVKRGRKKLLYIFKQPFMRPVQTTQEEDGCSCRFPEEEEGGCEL

Row | Binder | NF-kB signalling, HEK.FRT.luc.hCD137, +XL (EC50 nM) [nM]
18 | B12 | 26.3
19 | B14 | 124
20 | B15 | 382
21 | B16 | 47.5
22 | B17 | 64.6
23 | B18 | 119
24 | B13 | 32.8

Molecular target: human CD40 (human, UniProt P25942 21-193)
Assay: SPR (Biacore T200), receptor amine-coupled to CM5 chip
Protocol: (§2) The specificity of the anti-human CD137 Fcabs for human CD137 compared to other related TNFSFR family members was tested. 8 of the Fcabs were tested in mock mAb² (HeID1.3) format and measured by SPR in a Biacore T200 (GE Healthcare) by testing for binding to other human TNFRSF receptors: CD40, OX40 and GITR. Amine coupling (amine coupling kit, GE Healthcare, BR-1000-50) was used to coat human CD40, GITR and OX40 to approximately 1000 RU in Biacore CM5 chips (GE Healthcare, cat no 29149603). […] The chip was regenerated by injection of 10 mM glycine pH 2.5 for 12 s at 30 μl/min. Antibodies specific to the different TNFRSF members were used as positive controls to verify Biacore chip coating. Data was double reference subtracted and analysed using BIAevaluation 3.2 software.

human CD40, sequence (P25942 21-193 limits assumed): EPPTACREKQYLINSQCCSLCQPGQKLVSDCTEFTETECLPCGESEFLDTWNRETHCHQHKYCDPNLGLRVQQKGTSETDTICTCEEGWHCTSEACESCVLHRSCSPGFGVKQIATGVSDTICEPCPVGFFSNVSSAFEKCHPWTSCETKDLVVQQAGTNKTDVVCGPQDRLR

Row | Binder | binding result
25 | B12 | no binding (tested: starting at 1 µM)
26 | B16 | no binding (tested: starting at 1 µM)
27 | B17 | no binding (tested: starting at 1 µM)
28 | B18 | no binding (tested: starting at 1 µM)
29 | B13 | no binding (tested: starting at 1 µM)

Molecular target: T4, human GITR (human, UniProt Q9Y5U5 26-161, limits assumed)
T4 sequence (looked up): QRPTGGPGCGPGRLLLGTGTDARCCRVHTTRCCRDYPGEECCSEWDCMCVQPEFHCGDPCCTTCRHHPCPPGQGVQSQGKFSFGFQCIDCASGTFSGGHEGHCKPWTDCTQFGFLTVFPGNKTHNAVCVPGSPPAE
Assay: as above
Protocol: as §2

Row | Binder | binding result
30 | B12 | no binding (tested: starting at 1 µM)
31 | B16 | no binding (tested: starting at 1 µM)
32 | B17 | no binding (tested: starting at 1 µM)
33 | B18 | no binding (tested: starting at 1 µM)
34 | B13 | no binding (tested: starting at 1 µM)

Molecular target: T5, human OX40 (human, UniProt P43489 29-216, limits assumed)
T5 sequence (looked up): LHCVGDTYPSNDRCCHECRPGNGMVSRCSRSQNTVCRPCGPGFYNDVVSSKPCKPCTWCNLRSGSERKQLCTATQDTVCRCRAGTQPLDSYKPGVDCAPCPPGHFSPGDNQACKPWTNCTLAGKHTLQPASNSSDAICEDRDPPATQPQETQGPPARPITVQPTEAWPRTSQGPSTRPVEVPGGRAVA
Assay: as above
Protocol: as §2

Row | Binder | binding result
35 | B12 | no binding (tested: starting at 1 µM)
36 | B16 | no binding (tested: starting at 1 µM)
37 | B17 | no binding (tested: starting at 1 µM)
38 | B18 | no binding (tested: starting at 1 µM)
39 | B13 | no binding (tested: starting at 1 µM)
